# Test results as given in publication PMC3695229.
# Assays:
# [1] = molecular target: TGF-β3 (Homo sapiens) (UniProt P10600); details: cited from earlier work
# [2] = molecular target: TGF-β2 (Homo sapiens) (UniProt P61812); details: cited from earlier work
# [3] = molecular target: TGF-β1 (Homo sapiens) (UniProt P01137); details: cited from earlier work
# [4] = molecular target: TGFR-3-ZP(ΔC) (mouse) (UniProt O88393); assay: SEC; analytical SEC of the ligand-free protein on Superdex 200 10/300, 4°C, 0.5 ml/min; apparent molecular weight against standards
# [5] = molecular target: P1-mZP (C-terminus mimetic peptide of murine TGFR-3-ZP, residues 735-782) (mouse) (UniProt O88393); assay: SPR; ProteOn XPR36; biotinylated peptides immobilised on neutravidin (300-600 RU), TGF-β2 as analyte; 25°C, HBS150 (10 mM HEPES pH 7.4, 150 mM NaCl, 3.4 mM EDTA, 0.005% Tween 20); kinetic fit 1:1 Langmuir with or without mass transfer; avidity of dimeric TGF-β2 expected
# [6] = molecular target: P2-hZP (C-terminus mimetic peptide of human TGFR-3, residues 737-788) (human) (UniProt Q03167); assay: as above
# [7] = molecular target: P4-mZP (17mer peptide of murine TGFR-3, residues 732-748) (mouse) (UniProt O88393); assay: as above
# [8] = molecular target: P5-hZP (17mer peptide of human TGFR-3, residues 734-750) (human) (UniProt Q03167); assay: as above
# P2-hZP (C-terminus mimetic peptide of human TGFR-3, residues 737-788) (human), sequence (Q03167 737-788): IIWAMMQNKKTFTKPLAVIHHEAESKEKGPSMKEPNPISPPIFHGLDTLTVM
# TGFR-3 membrane-proximal ectodomain C-terminal half of ectodomain, sequence (P26342 410-781): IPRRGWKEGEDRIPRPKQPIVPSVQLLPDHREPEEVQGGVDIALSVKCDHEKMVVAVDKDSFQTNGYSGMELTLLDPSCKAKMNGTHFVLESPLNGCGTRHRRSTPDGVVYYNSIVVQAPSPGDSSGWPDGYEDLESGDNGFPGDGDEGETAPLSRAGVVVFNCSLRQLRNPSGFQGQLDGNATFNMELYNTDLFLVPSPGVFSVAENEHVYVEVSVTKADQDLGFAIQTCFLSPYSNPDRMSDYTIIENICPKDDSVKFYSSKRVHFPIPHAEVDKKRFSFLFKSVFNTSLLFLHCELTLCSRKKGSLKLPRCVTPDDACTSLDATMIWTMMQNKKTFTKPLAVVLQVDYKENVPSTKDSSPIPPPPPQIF
# P1-mZP (C-terminus mimetic peptide of murine TGFR-3-ZP, residues 735-782) (mouse), sequence (O88393 735-782): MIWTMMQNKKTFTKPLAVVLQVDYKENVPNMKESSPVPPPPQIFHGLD
# TGF-β2 (Homo sapiens), sequence (P61812 303-414): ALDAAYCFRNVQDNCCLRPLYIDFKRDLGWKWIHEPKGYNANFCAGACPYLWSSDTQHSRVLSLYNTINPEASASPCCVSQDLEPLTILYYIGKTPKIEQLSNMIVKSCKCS
# TGF-β3 (Homo sapiens), sequence (P10600 301-412): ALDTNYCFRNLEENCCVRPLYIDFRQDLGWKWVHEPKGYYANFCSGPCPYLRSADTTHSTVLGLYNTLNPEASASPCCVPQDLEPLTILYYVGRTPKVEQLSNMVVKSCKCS
# TGF-β1 (Homo sapiens), sequence (P01137 279-390): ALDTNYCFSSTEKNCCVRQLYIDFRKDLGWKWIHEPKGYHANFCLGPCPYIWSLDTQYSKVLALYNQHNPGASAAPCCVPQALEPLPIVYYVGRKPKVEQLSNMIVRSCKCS
substance,measurement,setting,value
TGFR-3 membrane-proximal ectodomain C-terminal half of ectodomain (from UniProt P26342),Kd,[1],5.8 µM
same,Kd,[2],2.6 µM
same,Kd,[3],9.7 µM
TGFR-3-ZP(ΔC) (from UniProt O88393 438-734) (domain or fragment),stoichiometry N,[4],2
human TGF-β2 (ligand),Kd,[5],0.0079 µM
same,koff,[5],0.029 s⁻¹
same,kon,[5],5.2e+06 M⁻¹ s⁻¹
same,Kd,[6],0.015 µM
same,koff,[6],0.044 s⁻¹
same,kon,[6],4.4e+06 M⁻¹ s⁻¹
same,Kd,[7],0.192 µM
same,koff,[7],0.02 s⁻¹
same,kon,[7],110000 M⁻¹ s⁻¹
same,Kd,[8],0.353 µM
same,koff,[8],0.029 s⁻¹
same,kon,[8],79000 M⁻¹ s⁻¹
